These results are taken from paper PMC7708082.

This experiment has as its target translesion synthesis (TLS) polymerase ι (human (endogenous in K562)) (UniProt Q9UNA4). Kind of experiment: proximity ligation.
UniProt Q9UNA4, sequence (Q9UNA4 whole entry): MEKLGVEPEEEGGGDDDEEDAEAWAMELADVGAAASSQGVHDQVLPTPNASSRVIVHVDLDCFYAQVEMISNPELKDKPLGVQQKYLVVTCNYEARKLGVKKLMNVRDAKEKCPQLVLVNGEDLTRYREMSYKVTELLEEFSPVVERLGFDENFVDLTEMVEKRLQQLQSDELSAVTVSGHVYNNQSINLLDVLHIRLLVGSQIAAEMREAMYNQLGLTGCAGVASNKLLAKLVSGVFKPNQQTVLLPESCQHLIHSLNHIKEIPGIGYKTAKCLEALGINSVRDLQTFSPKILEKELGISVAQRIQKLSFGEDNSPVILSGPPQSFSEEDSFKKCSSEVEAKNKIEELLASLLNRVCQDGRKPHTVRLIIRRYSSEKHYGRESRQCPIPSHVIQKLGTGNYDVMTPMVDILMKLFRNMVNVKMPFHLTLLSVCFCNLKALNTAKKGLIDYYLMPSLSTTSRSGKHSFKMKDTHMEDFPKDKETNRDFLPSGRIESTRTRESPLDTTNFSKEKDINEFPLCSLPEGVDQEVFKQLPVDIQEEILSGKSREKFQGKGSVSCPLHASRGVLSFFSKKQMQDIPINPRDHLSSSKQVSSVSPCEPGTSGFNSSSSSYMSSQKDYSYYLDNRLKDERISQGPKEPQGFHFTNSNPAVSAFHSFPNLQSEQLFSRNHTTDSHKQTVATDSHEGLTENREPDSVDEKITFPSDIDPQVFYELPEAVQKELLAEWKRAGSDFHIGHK

For “p53(22Q/23S) (from UniProt P04637 1-393) (natural protein)”, the reduction in PLA-foci numbers against p53(WT) turned out to be 64%.
